# Source: the Human Domainome abundance scans (Beltran et al. 2025)
# ± gives the uncertainty stated by the source.
# Test: abundance fitness (aPCA) (normalised: wild type 0, dead -1); higher = more abundant; growth selection in yeast, the domain comes from the species named
# Settings: Homo sapiens
substance,measurement,value
"DnaJ homolog subfamily B member 1 G10M, P25685",abundance fitness,-0.191 ± 0.085
"DnaJ homolog subfamily B member 1 G10N, P25685",abundance fitness,-0.333 ± 0.25
"DnaJ homolog subfamily B member 1 G10P, P25685",abundance fitness,-0.926 ± 0.21
"DnaJ homolog subfamily B member 1 G10Q, P25685",abundance fitness,-0.048 ± 0.083
"DnaJ homolog subfamily B member 1 G10R, P25685",abundance fitness,-0.239 ± 0.066
"DnaJ homolog subfamily B member 1 G10S, P25685",abundance fitness,-0.163 ± 0.061
"DnaJ homolog subfamily B member 1 G10T, P25685",abundance fitness,-0.564 ± 0.16
"DnaJ homolog subfamily B member 1 G10V, P25685",abundance fitness,-0.606 ± 0.087
"DnaJ homolog subfamily B member 1 G10W, P25685",abundance fitness,-0.704 ± 0.12
"DnaJ homolog subfamily B member 1 G10Y, P25685",abundance fitness,-0.658 ± 0.12
"DnaJ homolog subfamily B member 1 G14A, P25685",abundance fitness,-0.353 ± 0.13
"DnaJ homolog subfamily B member 1 G14C, P25685",abundance fitness,-0.266 ± 0.12
"DnaJ homolog subfamily B member 1 G14E, P25685",abundance fitness,-0.192 ± 0.078
"DnaJ homolog subfamily B member 1 G14F, P25685",abundance fitness,-0.446 ± 0.2
"DnaJ homolog subfamily B member 1 G14H, P25685",abundance fitness,-0.133 ± 0.24
"DnaJ homolog subfamily B member 1 G14I, P25685",abundance fitness,-0.235 ± 0.12
"DnaJ homolog subfamily B member 1 G14K, P25685",abundance fitness,-0.13 ± 0.093
"DnaJ homolog subfamily B member 1 G14L, P25685",abundance fitness,-0.266 ± 0.074
"DnaJ homolog subfamily B member 1 G14M, P25685",abundance fitness,-0.385 ± 0.096
"DnaJ homolog subfamily B member 1 G14N, P25685",abundance fitness,-0.232 ± 0.15
"DnaJ homolog subfamily B member 1 G14P, P25685",abundance fitness,-0.347 ± 0.12
"DnaJ homolog subfamily B member 1 G14Q, P25685",abundance fitness,-0.251 ± 0.091
"DnaJ homolog subfamily B member 1 G14R, P25685",abundance fitness,-0.274 ± 0.056
"DnaJ homolog subfamily B member 1 G14S, P25685",abundance fitness,-0.126 ± 0.042
"DnaJ homolog subfamily B member 1 G14T, P25685",abundance fitness,-0.072 ± 0.092
"DnaJ homolog subfamily B member 1 G14V, P25685",abundance fitness,-0.241 ± 0.11
"DnaJ homolog subfamily B member 1 G14Y, P25685",abundance fitness,-0.378 ± 0.32
"DnaJ homolog subfamily B member 1 G40A, P25685",abundance fitness,-0.128 ± 0.1
"DnaJ homolog subfamily B member 1 G40C, P25685",abundance fitness,-0.113 ± 0.16
"DnaJ homolog subfamily B member 1 G40D, P25685",abundance fitness,-0.301 ± 0.078
"DnaJ homolog subfamily B member 1 G40E, P25685",abundance fitness,-0.194 ± 0.1
"DnaJ homolog subfamily B member 1 G40F, P25685",abundance fitness,-0.049 ± 0.13
"DnaJ homolog subfamily B member 1 G40H, P25685",abundance fitness,-0.131 ± 0.15
"DnaJ homolog subfamily B member 1 G40I, P25685",abundance fitness,-0.026 ± 0.13
"DnaJ homolog subfamily B member 1 G40K, P25685",abundance fitness,0.005 ± 0.15
"DnaJ homolog subfamily B member 1 G40L, P25685",abundance fitness,-0.188 ± 0.1
"DnaJ homolog subfamily B member 1 G40M, P25685",abundance fitness,-0.14 ± 0.1
"DnaJ homolog subfamily B member 1 G40N, P25685",abundance fitness,-0.173 ± 0.18
"DnaJ homolog subfamily B member 1 G40P, P25685",abundance fitness,-0.248 ± 0.12
"DnaJ homolog subfamily B member 1 G40Q, P25685",abundance fitness,-0.103 ± 0.14
"DnaJ homolog subfamily B member 1 G40R, P25685",abundance fitness,-0.041 ± 0.088
